Test results published in the supplement of paper PMC6379048.

Assays:
Assay in all cases: Kd (EC50 corrected by depletion factor)
TIAL1 = molecular target: T1, TIAL1 (UniProt Q01085)
T1 sequence: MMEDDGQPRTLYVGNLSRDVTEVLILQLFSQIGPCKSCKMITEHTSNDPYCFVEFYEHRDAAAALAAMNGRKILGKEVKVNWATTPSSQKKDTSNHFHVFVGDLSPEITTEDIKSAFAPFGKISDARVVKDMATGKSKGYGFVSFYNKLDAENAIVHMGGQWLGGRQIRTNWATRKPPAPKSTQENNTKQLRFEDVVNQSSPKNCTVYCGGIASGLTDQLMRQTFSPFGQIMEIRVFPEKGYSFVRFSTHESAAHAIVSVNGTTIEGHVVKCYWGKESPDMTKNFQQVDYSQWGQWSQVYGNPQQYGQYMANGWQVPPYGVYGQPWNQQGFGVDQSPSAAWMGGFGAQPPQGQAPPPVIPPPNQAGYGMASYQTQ
Summary of the method: (§1)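 Over three biological replicates and two independent experiments, proteins captured on NHS-Sepharose beads carrying 5′-amino-C6 RNA oligos were quantified by label-free LC-MS/MS and normalised to the control. Capture lasted 30 min at 4°C and followed a 1 h pre-incubation at 4°C of HEK293-FT lysate (2.5 mg protein/well) with the same oligos in free form (0 nM to 30 μM). EC50 was taken from a four-parameter log-logistic fit, and Kd was EC50 corrected by a protein-dependent depletion factor.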

HSP90AB2P = HSP90AB2P (UniProt Q58FF8)
Summary of the method: as §1

HNRNPK = HNRNPK (UniProt P61978)
Summary of the method: as §1

RPS25 = RPS25 (UniProt P62851)
Summary of the method: as §1

RPS12 = RPS12 (UniProt P25398)
Summary of the method: as §1

SKIV2L = SKIV2L (UniProt Q15477)
Summary of the method: as §1

PPIE = PPIE (UniProt Q9UNP9)
Summary of the method: as §1

CDKN2AIP = molecular target: T2, CDKN2AIP (UniProt Q9NXV6)
T2 sequence: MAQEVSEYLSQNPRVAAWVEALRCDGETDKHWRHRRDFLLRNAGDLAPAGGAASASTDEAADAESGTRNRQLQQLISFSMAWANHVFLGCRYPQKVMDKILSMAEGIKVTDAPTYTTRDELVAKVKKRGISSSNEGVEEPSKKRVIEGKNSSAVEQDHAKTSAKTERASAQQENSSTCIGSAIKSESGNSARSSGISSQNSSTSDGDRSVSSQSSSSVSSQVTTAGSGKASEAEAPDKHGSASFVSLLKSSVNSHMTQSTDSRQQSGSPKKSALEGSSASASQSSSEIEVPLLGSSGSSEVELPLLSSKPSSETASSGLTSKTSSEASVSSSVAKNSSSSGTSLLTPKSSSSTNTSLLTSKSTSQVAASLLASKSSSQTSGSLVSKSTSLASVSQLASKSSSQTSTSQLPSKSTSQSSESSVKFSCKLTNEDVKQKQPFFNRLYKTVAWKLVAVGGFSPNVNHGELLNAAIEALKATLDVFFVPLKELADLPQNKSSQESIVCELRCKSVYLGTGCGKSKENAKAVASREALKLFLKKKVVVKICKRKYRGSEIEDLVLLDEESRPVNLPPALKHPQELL
Summary of the method: as §1

CSTF2T = molecular target: T3, CSTF2T (UniProt Q9H0L4)
T3 sequence: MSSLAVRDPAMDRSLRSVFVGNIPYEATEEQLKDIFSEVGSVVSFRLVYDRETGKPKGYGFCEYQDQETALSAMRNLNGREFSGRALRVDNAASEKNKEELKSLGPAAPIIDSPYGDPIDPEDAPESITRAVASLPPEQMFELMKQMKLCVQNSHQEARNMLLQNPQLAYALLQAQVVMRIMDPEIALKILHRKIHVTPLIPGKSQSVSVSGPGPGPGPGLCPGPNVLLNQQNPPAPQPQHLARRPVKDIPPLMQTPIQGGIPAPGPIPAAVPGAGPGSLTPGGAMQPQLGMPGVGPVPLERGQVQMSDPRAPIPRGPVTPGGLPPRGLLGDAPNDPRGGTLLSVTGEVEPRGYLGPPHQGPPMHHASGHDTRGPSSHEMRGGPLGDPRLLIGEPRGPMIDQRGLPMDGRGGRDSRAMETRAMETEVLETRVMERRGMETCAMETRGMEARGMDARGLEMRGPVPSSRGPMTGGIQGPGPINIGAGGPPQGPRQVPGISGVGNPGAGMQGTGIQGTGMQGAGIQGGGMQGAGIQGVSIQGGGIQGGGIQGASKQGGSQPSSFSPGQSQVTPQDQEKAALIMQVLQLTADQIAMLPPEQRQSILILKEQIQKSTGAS
Summary of the method: as §1

CWF19L1 = molecular target: T4, CWF19L1 (UniProt Q69YN2)
T4 sequence: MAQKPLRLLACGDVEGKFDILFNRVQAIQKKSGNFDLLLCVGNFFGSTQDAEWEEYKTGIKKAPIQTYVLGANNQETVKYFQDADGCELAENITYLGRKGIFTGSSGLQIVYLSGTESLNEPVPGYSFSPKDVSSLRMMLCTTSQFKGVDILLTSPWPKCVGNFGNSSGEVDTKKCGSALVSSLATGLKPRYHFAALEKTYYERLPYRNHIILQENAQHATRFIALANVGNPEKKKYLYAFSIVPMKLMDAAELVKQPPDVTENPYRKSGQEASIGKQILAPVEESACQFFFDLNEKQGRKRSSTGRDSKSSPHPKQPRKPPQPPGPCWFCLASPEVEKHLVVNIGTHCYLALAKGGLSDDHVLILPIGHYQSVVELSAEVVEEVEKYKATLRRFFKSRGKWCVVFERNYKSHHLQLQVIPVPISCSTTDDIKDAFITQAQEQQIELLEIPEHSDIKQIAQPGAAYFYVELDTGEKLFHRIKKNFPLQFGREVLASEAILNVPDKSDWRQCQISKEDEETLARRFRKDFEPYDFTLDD
Summary of the method: as §1

DAP3 = DAP3 (UniProt P51398)
Summary of the method: as §1

Chain of HSP90AB2P (Q58FF8 whole entry): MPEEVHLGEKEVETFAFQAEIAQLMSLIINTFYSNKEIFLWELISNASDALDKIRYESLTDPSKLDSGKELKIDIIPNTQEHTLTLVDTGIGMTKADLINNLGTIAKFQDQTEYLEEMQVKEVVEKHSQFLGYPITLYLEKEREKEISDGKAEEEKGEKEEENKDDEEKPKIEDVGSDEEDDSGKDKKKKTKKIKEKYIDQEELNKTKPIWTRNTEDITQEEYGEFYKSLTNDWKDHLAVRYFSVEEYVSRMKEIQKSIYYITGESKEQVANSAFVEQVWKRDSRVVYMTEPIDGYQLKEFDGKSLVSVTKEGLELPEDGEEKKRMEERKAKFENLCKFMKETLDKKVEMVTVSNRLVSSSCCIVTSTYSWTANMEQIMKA
Chain of SKIV2L (Q15477 whole entry): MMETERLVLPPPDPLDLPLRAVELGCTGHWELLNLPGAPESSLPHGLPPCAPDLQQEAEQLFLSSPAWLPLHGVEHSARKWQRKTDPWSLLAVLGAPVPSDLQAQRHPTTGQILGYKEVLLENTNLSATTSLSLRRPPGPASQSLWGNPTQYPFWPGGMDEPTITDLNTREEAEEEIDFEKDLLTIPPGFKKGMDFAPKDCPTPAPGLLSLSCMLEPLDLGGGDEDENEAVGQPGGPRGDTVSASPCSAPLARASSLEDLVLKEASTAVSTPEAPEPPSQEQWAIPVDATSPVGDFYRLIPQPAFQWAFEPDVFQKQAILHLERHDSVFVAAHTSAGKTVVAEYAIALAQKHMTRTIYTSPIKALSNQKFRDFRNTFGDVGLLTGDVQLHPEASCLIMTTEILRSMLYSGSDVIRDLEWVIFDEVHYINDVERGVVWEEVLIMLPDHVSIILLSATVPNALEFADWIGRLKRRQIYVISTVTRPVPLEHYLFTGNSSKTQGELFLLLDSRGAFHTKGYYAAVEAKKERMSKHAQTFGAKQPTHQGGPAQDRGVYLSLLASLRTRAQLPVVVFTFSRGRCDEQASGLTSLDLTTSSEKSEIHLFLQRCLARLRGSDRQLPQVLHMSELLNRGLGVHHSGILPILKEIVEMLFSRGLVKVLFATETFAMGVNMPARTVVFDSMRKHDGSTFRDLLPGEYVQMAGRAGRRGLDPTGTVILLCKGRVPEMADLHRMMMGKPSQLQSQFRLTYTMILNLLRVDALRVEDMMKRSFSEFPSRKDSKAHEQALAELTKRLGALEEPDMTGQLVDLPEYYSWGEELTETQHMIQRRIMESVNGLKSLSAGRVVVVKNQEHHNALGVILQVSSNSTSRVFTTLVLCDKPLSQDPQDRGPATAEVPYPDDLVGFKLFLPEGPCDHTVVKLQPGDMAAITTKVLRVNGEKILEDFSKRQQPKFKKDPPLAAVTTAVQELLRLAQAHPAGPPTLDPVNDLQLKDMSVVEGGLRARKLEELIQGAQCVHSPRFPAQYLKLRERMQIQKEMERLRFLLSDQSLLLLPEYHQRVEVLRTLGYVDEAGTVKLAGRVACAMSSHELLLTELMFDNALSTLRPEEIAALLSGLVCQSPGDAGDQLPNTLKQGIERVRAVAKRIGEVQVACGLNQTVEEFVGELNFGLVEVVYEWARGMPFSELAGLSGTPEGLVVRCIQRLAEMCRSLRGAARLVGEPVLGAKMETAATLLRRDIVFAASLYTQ
Chain of PPIE (Q9UNP9 whole entry): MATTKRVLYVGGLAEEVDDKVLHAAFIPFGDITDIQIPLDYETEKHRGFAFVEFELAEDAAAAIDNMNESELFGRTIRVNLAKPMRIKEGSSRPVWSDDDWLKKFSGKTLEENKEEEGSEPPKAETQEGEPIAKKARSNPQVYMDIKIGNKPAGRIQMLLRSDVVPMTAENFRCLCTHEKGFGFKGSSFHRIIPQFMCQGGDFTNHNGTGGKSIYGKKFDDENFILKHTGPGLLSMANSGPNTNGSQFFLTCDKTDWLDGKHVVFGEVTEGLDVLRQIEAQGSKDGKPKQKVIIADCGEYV

For AAUAAA, the Kd (TIAL1) was 11.2 nM and the Kd (HSP90AB2P) was 108 nM.
CUGUCCU showed a Kd (HNRNPK) of 1630 nM, a Kd (RPS25) of 25.2 nM and a Kd (RPS12) of 128 nM.
UAUUUAU was tested, and the Kd (SKIV2L) was 902 nM, the Kd (PPIE) was 205 nM and the Kd (CDKN2AIP) was 368 nM. It also gave a Kd (CSTF2T) of 257 nM, a Kd (CWF19L1) of 1960 nM and a Kd (DAP3) of 37.4 nM.
